From patent publication US20220251151A1

Assays:
Assay in all cases: cell-based or functional assay
[1] = biological target: human Kv1.3 potassium channel (potassium voltage-gated channel subfamily A member 3, α-subunit) (human), P22001
[2] = biological target: T1, human Kv1.1 potassium channel (α-subunit) (human), Q09470
T1 chain: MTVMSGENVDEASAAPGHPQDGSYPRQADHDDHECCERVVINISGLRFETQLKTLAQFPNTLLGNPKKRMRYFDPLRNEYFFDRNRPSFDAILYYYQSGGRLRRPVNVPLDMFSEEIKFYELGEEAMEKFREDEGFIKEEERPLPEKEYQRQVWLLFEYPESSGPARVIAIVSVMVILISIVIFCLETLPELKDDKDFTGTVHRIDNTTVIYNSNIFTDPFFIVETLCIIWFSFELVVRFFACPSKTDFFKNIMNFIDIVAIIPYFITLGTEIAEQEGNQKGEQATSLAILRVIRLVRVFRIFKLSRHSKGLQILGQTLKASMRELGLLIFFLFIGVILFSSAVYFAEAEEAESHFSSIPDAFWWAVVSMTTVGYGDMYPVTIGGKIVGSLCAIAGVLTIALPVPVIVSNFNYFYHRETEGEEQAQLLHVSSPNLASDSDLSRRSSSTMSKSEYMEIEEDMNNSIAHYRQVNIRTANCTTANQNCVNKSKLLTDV

[3] = biological target: T2, human Kv1.6 potassium channel (α-subunit) (human), P17658
T2 chain: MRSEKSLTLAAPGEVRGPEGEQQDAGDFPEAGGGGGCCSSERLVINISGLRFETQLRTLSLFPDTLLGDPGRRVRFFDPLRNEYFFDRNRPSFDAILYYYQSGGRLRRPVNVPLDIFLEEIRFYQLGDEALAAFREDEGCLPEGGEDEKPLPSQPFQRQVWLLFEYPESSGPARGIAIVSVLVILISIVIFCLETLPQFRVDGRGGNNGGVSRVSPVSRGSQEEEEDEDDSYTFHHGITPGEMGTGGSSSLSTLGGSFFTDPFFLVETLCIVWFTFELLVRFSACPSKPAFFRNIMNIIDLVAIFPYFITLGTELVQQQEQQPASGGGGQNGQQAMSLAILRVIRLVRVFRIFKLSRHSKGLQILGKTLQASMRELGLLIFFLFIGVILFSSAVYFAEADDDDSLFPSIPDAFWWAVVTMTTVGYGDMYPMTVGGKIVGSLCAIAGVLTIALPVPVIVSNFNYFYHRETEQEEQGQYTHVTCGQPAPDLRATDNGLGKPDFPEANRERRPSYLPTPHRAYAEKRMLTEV

[4] = biological target: human Kv1.2 potassium channel (α-subunit) (human), P16389
Chain of human Kv1.2 potassium channel (α-subunit) (human), P16389 (P16389 whole entry): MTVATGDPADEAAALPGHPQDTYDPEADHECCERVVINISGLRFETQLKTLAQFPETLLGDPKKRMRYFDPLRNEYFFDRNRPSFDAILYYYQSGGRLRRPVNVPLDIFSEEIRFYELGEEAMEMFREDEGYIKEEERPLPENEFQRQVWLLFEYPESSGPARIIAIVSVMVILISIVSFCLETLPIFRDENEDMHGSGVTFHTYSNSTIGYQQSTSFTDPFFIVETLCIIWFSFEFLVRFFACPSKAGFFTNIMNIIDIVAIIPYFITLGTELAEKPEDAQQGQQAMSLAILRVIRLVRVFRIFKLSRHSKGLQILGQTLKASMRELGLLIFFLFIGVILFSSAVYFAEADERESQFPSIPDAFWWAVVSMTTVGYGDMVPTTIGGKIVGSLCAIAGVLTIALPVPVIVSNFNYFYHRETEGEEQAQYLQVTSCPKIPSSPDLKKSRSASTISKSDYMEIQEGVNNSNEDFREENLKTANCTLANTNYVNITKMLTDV

Chain of human Kv1.3 potassium channel (potassium voltage-gated channel subfamily A member 3, α-subunit) (human), P22001 (P22001 whole entry): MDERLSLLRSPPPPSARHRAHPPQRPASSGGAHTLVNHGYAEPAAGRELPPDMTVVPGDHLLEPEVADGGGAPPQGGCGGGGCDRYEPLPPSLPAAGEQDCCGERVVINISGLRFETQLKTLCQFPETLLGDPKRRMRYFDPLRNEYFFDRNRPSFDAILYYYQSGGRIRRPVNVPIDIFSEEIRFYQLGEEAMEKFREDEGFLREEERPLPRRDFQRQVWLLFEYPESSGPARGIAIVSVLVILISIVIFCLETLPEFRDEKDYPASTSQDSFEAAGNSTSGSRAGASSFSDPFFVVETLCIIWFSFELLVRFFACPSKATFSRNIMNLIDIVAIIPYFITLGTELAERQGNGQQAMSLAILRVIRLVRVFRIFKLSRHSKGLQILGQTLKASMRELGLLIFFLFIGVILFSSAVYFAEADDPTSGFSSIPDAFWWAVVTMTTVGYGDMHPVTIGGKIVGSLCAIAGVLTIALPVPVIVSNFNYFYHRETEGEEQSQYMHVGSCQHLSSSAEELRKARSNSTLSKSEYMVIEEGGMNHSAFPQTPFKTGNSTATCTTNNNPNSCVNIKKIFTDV

For QMDMRCSASVECKQKCLKAIGSIFGKCMNKKCKCYPR (modifications not checked) [Compound 1 (PaT1)], the Potency IC50 (patch clamp) [1] was 0.38 nM, the anti-CD3 PBMC/IL-2 IC50 [1] was 0.09 nM and the Potency IC50 (patch clamp) [2] was > 3000 nM. For the same binder, the Selectivity Kv1.1/Kv1.3 [2] was > 7900, the Potency IC50 (patch clamp) [3] was > 3000 nM and the Selectivity Kv1.6/Kv1.3 [3] was > 7900. The Potency IC50 (patch clamp) [4] was 518 nM and the Selectivity Kv1.2/Kv1.3 [4] was 1360.
